Experimental findings from paper PMC4507534 are described below.

In general, Km refers to the substrate concentration at which the rate is half of its maximum. The term kcat denotes the number of substrate molecules converted per active site and unit of time at saturation. A word on the kcat/Km: it is the turnover number divided by the Michaelis constant.

Holding throughout (assay): purified protein
Common to all, as to conditions: pH and temperature of the kinetic assay not given

Substrate in series [1]: C#CCOC(=O)[C@@H](C)Oc1ccc(Oc2ncc(Cl)cc2F)cc1
Substrate in series [2]: CCCCOC(=O)[C@@H](C)Oc1ccc(Oc2ccc(C(F)(F)F)cn2)cc1
Substrate in series [3]: COC(=O)[C@@H](C)Oc1ccc(Oc2ncc(C(F)(F)F)cc2Cl)cc1
Substrate in series [4]: CCOC(=O)[C@@H](C)Oc1ccc(Oc2cnc3cc(Cl)ccc3n2)cc1
Substrate in series [5]: COC(=O)C(C)Oc1ccc(Oc2ccc(Cl)cc2Cl)cc1
Substrate in series [6]: CCOC(=O)[C@@H](C)Oc1ccc(Oc2nc3ccc(Cl)cc3o2)cc1

B1: FeH (FE-hydrolyzing carboxylesterase) (Rhodococcus sp. JPL-2) (protein)
chain: MSDIHGVCDARFSALREALERNLDSGEDVGASIAVTLDGEPVVDIWGGSMDAGGSRPWERDTITNVWSCSKTVTALAALMLVDRGQLDLDAPVARYWSDFAANGKEGILVRHLLSHTSGVSGWDQPFTMDDLADTTKATELLAAQAPWWEPGTASGYHALNYGHLIGEVVRRVDGRTLTGFIEEEISRPLGADFRLGVARSDYSRVSEVIPPPPLPIDFATLDPASVMVKTFTGPPADATAAWGDGWREAEIGAANGHSNARALARIQSVIACGGRVGGVRLLSADTIDAIFDEQSYGVDLVLGVPVRFGVGFGLPTPESVPFVPEGRICFWGGWGGSQIIVDTERRMTVAYVMNKMGPGLLGSDRSAEYVSAAFAAVP
With B1, the Michaelis constant (Km) in series [1] is 290 µM; in series [2] it was 360 µM; in series [3], 390 µM; in series [4], 230 µM; in series [5] it was 410 µM; in series [6] it was 200 µM. Also, the catalytic constant (kcat) in series [1] was found to be 0.61 s⁻¹; in series [2], 0.59 s⁻¹; in series [3], 0.37 s⁻¹; in series [4], 0.75 s⁻¹; in series [5], 0.33 s⁻¹; in series [6] it was 0.7 s⁻¹. Further, the kcat/Km in series [1] was found to be 2090 M⁻¹ s⁻¹; in series [2], 1650 M⁻¹ s⁻¹; in series [3] it was 940 M⁻¹ s⁻¹; in series [4], 3250 M⁻¹ s⁻¹; in series [5] it was 810 M⁻¹ s⁻¹; in series [6], 3520 M⁻¹ s⁻¹.
